The test system of data set [1] is MDA MB 231 cells. In words: Cell migration, modified Boyden chamber method. Type of data set: cell-based. As to conditions: transfected 24 hr, 18 hr migration, FIG. 3A. On the procedure:
MDA MB 231 cells were transfected with pCK-flag (control), FOG2-wt (wild type) and FOG2 mutants having modified zinc finger domain (FOG2-ZF-5-m and FOG2-ZF-6-m). The cell migration was then analyzed using the modified Boyden chamber method (Albini A et al., Cancer Res 1987 47:3239-45). Following the transfection for 24 hr, MDA MB 231 cells (1×10^5) were suspended in a serum-free medium and seeded in triplicate in the upper part of BD chamber ([…] pore size). The lower part was filled with the serum-free medium. Following the incubation at 37° C. for 18 hr, non-migrating cells positioned at the upper surface of filters were cleaned with a cotton swab. The migrating cells passing through the lower surface of filters were fixed with 70% ethanol and treated with the Giemsa staining solution for 50 min. Then, the cells were rinsed with water and observed under a microscope. The cell migration rate was determined by counting the number of cells present in randomly-selected six sections and the migration range was expressed as the average number of cells per a microscopic field.
MDA MB 231 cells were incubated with 4 μM Mock (control, DMSO), 4 μM ZF-5-wt-24, 4 μM ZF-5-m-24, 4 μM ZF-5-wt-20 or 4 μM ZF-3-wt-21. After treatment, the cell migration was analyzed using the modified Boyden chamber method (Albini A et al., Cancer Res 1987 47:3239-45). After 2 days of treatment, MDA MB 231 cells (1×10^5) were suspended in the serum free medium and seeded in triplicate in the upper part of BD chamber ([…] pore size). The lower part was filled with the serum free medium. Following the incubation at 37° C. for 18 hr, non-migrating cells positioned at the upper surface of filters were cleaned with the cotton swab. The migrating cells passing through the lower side surface of filters were fixed with 70% ethanol and stained using the Giemsa stain method. The cell migration rate was determined by counting the number of cells present in randomly-selected six sections and the migration range was expressed as the average number of cells per a microscopic field.

Data set [2] concerns the target PI3K (Homo sapiens, UniProt P27986). Description: PI3K activity in Hep3B cells transfected with FOG2 constructs (p85α immunoprecipitation, 32P-ATP/PIP2 kinase assay). It counts as cell-based. The arrangement: The cell lysates were immunoprecipitated with p85α (sc-1637, Santa Cruz) and Protein G-Sepharose beads; endogenous in cells; host or cells: Hep3B. On the procedure:
To investigate the inhibitory effect to PI3K activity by FOG2 zinc finger domain, PI3K activity was analyzed using FOG2 mutants having modified zinc finger domain. Specially, it is known that IGF signaling pathway plays an important role in cancer and the increased IGF-1 level enhances the risk of various cancers in many researches.
Accordingly, the PI3K activity was increased by incubating Hep3B cells with IGF-1 and then measured when the cells were incubated with peptides having mutated FOG2 zinc finger domain.
After Hep3B cells incubation, 100 ng/ml IGF-1 (Insulin like growth factor-1) was added to the cells and incubated for 30 min.
Hep3B cells were transfected with pCK-flag (control), FOG2-wt (wild type) and FOG2 mutants having modified zinc finger domain (FOG2-ZF-5-m and FOG2-ZF-6-m). Two days later, the lysates were obtained using a lysis buffer (20 mM Hepes (pH7.4), 100 mM NaCl, 20 mM KAc, 10 mM MgCl2, 10 mM ZnCl2, 1 mM Na3VO4, 1% NPO4). The cell lysates were immunoprecipitated with p85α (sc-1637, Santa Cruz) and Protein G-Sepharose beads using the same method above. After binding to beads, the lysates were washed 2 times with the lysis buffer and one time with the wash buffer (0.1 M Tris-HCl (pH 7.4), 5 mM LiCl, and 0.1 mM Na3VO4).
For measurement of PI3K activity, 10 μl of sonicated PIP2 (1 μg/μl, Calbiochem), 10 μl of 100 mM MgCl2 and 1 μl of [-^32P]ATP (500 μCi/ml) were added to the kinase buffer (10 mM Tris-HCl (pH 7.4), 150 mM NaCl, 1 mM Na3VO4, 10 mM ZnCl2) and incubated at 37° C. for 30 min. After incubation, 20 μl of 6 N HCl was added to stop the reaction and PIP2 was extracted by treatment with 200 μl of methanol:chloroform (1:1) solution. The amount of radioactively labeled PIP2 in the extract was measured using a scintillator counter.

The target of data set [3] is T1, p85α (Homo sapiens, UniProt P27986).
T1 construct: subject to the Western blot analysis using p85α (sc-1637, Santa Cruz); endogenous in cells; host or cells: Hep3B
T1 sequence (P27986 whole entry): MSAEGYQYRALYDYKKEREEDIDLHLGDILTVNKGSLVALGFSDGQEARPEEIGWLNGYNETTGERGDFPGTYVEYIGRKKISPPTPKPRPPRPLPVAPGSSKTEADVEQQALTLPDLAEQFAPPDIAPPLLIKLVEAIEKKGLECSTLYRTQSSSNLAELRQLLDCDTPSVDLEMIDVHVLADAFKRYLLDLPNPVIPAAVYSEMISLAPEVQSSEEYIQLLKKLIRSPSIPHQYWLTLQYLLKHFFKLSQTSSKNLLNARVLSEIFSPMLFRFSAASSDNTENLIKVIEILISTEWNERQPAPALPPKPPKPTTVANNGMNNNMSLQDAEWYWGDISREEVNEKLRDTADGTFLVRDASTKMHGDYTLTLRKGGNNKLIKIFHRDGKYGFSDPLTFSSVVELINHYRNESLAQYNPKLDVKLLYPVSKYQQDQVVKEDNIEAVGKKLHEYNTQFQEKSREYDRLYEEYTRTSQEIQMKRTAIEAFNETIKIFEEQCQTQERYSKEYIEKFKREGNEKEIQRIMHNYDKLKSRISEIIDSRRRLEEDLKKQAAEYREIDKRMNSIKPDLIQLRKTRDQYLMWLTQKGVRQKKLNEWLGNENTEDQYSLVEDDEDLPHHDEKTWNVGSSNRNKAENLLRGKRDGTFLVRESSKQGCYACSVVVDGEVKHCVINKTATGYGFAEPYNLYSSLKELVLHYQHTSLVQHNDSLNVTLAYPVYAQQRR
Description: Interaction of FOG2 zinc finger domain with p85α (α-Flag immunoprecipitation, Western blot). It counts as binding. Particulars: Hep3B cells, 2 days after transfection, FIG. 1B. An excerpt:
To reveal the region of FOG2 interacting with p85α as a subunit of PI3K, we numbered eight (8) zinc finger domains of FOG2. Then, mutated FOG2 with altered zinc finger domain (FOG-ZF-5-m and FOG-ZF-6-m) was manufactured by mutating two domains (known to interact with p85α) positioned at 413-789th amino acid residues of FOG2.
Hep3B cells were transfected with pCK-flag (control), FOG2-wt (wild type) and FOG2 mutants having modified the zinc finger domain (FOG2-ZF-5-m and FOG2-ZF-6-m). On 2 days after transfection, the lysates were obtained using the lysis buffer (20 mM Hepes (pH7.4), 100 mM NaCl, 20 mM KAc, 10 mM MgCl2, […], 1 mM Na3VO4, 5 mM NaF, 1% NPO4). The cell lysates were immunoprecipitated with the α-Flag (Sigma, A2220) and subject to the Western blot analysis using p85α (sc-1637, Santa Cruz) and α-Flag antibody (Sigma, F1804).

For data set [4], the system named is MDA MB 231 cells. Description: Cell proliferation MTT assay. Type of data set: cell-based. Particulars: transfected with 100 ng DNA, 3 days post-transfection, FIG. 6A. The procedure: Because the PI3K activation is critical in cell growth, the cell proliferation was analyzed to investigate the inhibitory effect of the FOG2 zinc finger domain using the MTT assay.
MDA MB 231 cells were seeded in a 96-well plate, and transfected with 100 ng DNA of pCKflag, FOG2-wt, FOG2-ZF-5-m or FOG2-ZF-6-m using Lipofectamine 2000. On 3 days post-transfection, the MTT assay was performed.
MDA MB 231 cells (2×10^3 cells) were seeded in a 96-well plate and treated with 4 μM each peptide for 3 days. After the treatment, 50 μl of MTT solution (2 mg/ml) was added to each well, incubated at 37° C. for 1 hr. Then, 150 μl of DMSO was added to each well and the absorbance value of each well was measured at 590 nm using a microplate reader.
Background: Tetrazolium assays rely on reduction of a dye to a coloured formazan, in cell work by metabolically active cells.

Data set [5] has as its system Akt. Description: Akt phosphorylation by Western blot in transfected Hep3B cells after IGF-1 stimulation. As to conditions: FIG. 1D. Type of data set: cell-based. The procedure: Hep3B cells were transfected with FOG2 mutants having modified zinc finger domain to measure the effect on the Akt signaling by FOG2-ZF-5m. The Akt activity was measured by analyzed Akt phosphorylation.
Hep3B cells were transfected with pCK-flag (control), FOG2-wt (wild type) and FOG2 mutants having modified zinc finger domain (FOG2-ZF-5-m and FOG2-ZF-6-m) and stimulated with IGF-1. The expression of Akt (Cell signaling Technology, USA), pAkt (Cell signaling Technology, USA) and GAPDH(Santa cruz, USA) were measured by Western blot analysis.

Entries after “also recorded” stand apart in the source; their conditions may differ.

Chain of PI3K (P27986 whole entry, the tested form may be a part): as the sequence (P27986 whole entry) above

B1: FOG2-ZF-5-m: Mutated FOG2 with altered the fifth zinc finger domain (two histidine residues substituted with alanine) (protein)
chain: MSRRKQSKPRQIKRPLEDAIEDEEEECPSEETDIISKGDFPLEESFSTEFGPENLSCEEVEYFCNKGDDEGIQETAESDGDTQSEKPGQPGVETDDWDGPGELEVFQKDGERKIQSRQQLPVGTTWGPFPGKMDLNNNSLKTKAQVPMVLTAGPKWLLDVTWQGVEDNKNNCIVYSKGGQLWCTTTKAISEGEELIAFVVDFDSRLQAASQMTLTEGMYPARLLDSIQLLPQQAAMASILPTAIVNKDIFPCKSCGIWYRSERNLQAHLMYYCSGRQREAAPVSEENEDSAHQISSLCPFPQCTKSFSNARALEMHLNSHSGVKMEEFLPPGASLKCTVCSYTADSVINFHQHLFSHLTQAAFRCNHCHFGFQTQRELLQHQELHVPSGKLPRESDMEHSPSATEDSLQPATDLLTRSELPQSQKAMQTKDASSDTELDKCEKKTQLFLTNQRPEIQPTTNKQSFSYTKIKSEPSSPRLASSPVQPNIGPSFPVGPFLSQFSFPQDITMVPQASEILAKMSELVHRRLRHGSSSYPPVIYSPLMPKGATCFECNITFNNLDNYLVAKKAYCSSRWQQMAKSPEFPSVSEKMPEALSPNTGQTSINLLNPAAHSADPENPLLQTSCINSSTVLDLIGPNGKGHDKDFSTQTKKLSTSSNNDDKINGKPVDVKNPSVPLVDGESDPNKTTCEACNITFSRHETYMVHKQYYCATRHDPPLKRSASNKVPAMQRTMRTRKRRKMYEMCLPEQEQRPPLVQQRFLDVANLNNPCTSTQEPTEGLGECYHPRCDIFPGIVSKHLETSLTINKCVPVSKCDTTHSSVSCLEMDVPIDLSKKCLSQSERTTTSPKRLLDYHECTVCKISFNKVENYLAHKQNFCPVTAHQRNDLGQLDGKVFPNPESERNSPDVSYERSIIKCEKNGNLKQPSPNGNLFSSHLATLQGLKVFSEAAQLIATKEENRHLFLPQCLYPGAIKKAKGADQLSPYYGIKPSDYISGSLVIHNTDIEQSRNAENESPKGQASSNGCAALKKDSLPLLPKNRGMVIVNGGLKQDERPAANPQQENISQNPQHEDDHKSPSWISENPLAANENVSPGIPSAEEQLSSIAKGVNGSSQAPTSGKYCRLCDIQFNNLSNFITHKKFYCSSHAAEHVK
modifications: left off: small tags and cut ends
Regarding B1, in data set [1], the “reduction of cell migration” value is listed as “does not; also recorded: not observed”. Also, in data set [2] (100 ng/ml IGF-1 30 min, FIG. 1C), the “PI3K activation by IGF-1 stimulation” value is recorded as “did not inhibit PI3K activation”. In addition, in data set [2] (without IGF-1 stimulation, FIG. 5A), the PI3K activity result is reported as “did not inhibit PI3K activity”. In data set [3], the “interaction with p85α” value is “did not”. The “effect on cell proliferation” value in data set [4] was “did not influence the cell proliferation”. In addition, in data set [5], the Akt phosphorylation result is on record as “increased”.

(Values after US20130116185A1, “PHOSPHATIDYLINOSITOL 3-KINASES ACTIVITY REGULATOR INCLUDING THE FIFTH ZINC FINGER DOMAIN OF FOG2” (SNU R&DB FOUNDATION, priority 2010, published 2013).)
